Reference: patent US20160185837A1 (AstraZeneca / MedImmune, published 2016)

T1: human GIP receptor (human, UniProt P48546 22-466)
T1 sequence (looked up): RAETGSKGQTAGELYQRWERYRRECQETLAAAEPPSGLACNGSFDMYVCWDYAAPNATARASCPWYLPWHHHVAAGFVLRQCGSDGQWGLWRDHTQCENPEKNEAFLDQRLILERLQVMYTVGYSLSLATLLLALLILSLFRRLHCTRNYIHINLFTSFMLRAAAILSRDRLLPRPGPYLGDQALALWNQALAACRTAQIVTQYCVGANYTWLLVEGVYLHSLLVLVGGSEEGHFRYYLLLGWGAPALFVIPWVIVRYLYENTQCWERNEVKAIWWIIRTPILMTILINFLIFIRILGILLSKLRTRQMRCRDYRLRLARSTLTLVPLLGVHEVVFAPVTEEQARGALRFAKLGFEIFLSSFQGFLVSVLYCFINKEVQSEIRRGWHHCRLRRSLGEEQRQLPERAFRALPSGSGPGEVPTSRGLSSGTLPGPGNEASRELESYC

T2: mouse GLP-1 receptor (mouse, UniProt O35659 22-463)
T2 sequence (looked up): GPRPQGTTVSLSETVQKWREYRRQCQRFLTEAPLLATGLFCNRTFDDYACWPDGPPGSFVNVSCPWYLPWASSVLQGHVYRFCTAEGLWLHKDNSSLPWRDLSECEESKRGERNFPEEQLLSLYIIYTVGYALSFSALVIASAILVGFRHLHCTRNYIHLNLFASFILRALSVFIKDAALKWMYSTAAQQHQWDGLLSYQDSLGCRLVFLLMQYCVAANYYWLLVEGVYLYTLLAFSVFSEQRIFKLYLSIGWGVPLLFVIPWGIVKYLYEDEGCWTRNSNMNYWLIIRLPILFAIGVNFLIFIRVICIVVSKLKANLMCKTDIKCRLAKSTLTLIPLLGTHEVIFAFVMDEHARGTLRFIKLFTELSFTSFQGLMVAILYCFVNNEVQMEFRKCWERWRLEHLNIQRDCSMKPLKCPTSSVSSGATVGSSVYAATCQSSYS

T3: mouse GIP receptor (mouse, UniProt Q0P543 19-460)
T3 sequence (looked up): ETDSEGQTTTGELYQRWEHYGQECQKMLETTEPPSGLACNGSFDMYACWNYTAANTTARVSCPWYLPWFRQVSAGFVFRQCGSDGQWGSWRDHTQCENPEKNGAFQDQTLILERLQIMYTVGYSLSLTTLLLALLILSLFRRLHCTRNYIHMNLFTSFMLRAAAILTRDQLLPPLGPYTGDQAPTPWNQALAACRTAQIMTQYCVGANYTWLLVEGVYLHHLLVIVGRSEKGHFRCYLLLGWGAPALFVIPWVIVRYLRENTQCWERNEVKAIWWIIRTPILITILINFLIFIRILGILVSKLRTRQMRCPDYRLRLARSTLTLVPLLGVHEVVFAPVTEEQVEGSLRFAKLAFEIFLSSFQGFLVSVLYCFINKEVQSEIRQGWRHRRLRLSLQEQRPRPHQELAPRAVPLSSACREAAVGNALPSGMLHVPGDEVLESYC

T4: rat GLP-1 receptor (rat, UniProt P32301 22-463)
T4 sequence (looked up): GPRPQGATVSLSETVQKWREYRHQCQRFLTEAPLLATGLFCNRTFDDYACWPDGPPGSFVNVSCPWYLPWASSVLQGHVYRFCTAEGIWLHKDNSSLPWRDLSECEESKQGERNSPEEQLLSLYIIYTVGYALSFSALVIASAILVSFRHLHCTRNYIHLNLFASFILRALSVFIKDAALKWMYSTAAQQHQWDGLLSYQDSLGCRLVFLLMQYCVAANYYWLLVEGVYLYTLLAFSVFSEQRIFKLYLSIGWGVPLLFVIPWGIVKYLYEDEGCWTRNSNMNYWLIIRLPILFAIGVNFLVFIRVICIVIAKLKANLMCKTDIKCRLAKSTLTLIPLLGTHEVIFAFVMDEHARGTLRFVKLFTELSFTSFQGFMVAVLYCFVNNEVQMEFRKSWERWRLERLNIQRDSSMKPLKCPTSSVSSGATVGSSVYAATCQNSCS

T5: rat GIP receptor (rat, UniProt P43219 19-455)
T5 sequence (looked up): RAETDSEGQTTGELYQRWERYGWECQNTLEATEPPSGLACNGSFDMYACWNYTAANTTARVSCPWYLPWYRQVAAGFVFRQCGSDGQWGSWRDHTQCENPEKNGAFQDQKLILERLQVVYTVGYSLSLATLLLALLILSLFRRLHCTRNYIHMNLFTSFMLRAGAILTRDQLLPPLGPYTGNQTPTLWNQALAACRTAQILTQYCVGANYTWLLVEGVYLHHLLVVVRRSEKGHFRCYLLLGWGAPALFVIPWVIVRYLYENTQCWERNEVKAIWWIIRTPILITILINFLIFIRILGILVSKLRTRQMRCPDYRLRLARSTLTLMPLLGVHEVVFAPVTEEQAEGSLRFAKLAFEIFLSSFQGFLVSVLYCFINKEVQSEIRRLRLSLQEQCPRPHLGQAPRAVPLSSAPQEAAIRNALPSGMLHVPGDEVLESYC

B1: IP272 (Fc fusion)
chain: YSEGTFTSDYSKLLEEEAVRLFIEWLLAQKAPPGGSGSTASSGSGSATGGGGAATHTCPPC
B2: IP273 (Fc fusion)
chain: YSEGTFTSDYSKLLEEEAVRLFIEWLVKGPAAAGGSGSTASSGSGSATGGGGAATHTCPPC
B3: IP278 (Fc fusion)
chain: YSEGTFTSDYSKLLEEEAVRLFIEWLVKGPPSSGAPPPSGGGGGSGGGGSGGGGSGGGGSATHTCPPC
B4: IP295 (Fc fusion)
chain: YSEGTFTSDYSKLLEEEAVRLFIEWLLAGGPSSGAPPPSGGGGGSGGGGSGGGGSGGGGSATHTCPPC
B5: IP280 (Fc fusion)
chain: YSEGTFTSDYSKLLEEEAVRLFIEWLVKGGPSSGAPPPSGGGGGSGGGGSGGGGSGGGGSATHTCPPC
B6: IP276 (Fc fusion)
chain: YSEGTFTSDYSKLLEEEAVRLFIEWLVKGPGGGGGGGGGGGGGGGGGATHTCPPC
B7: IP293 (Fc fusion)
chain: YSEGTFTSDYSKLLEEEAVRCFIECLVKGPGGGGGGGGGGGGGGGGGGGGACPPC
B8: IP294 (Fc fusion)
chain: YSEGTFTSDYSKLLEEEAVRLFICWLVCGPGGGGGGGGGGGGGGGGGGGGACPPC
B9: IP268 (Fc fusion)
chain: YSEGTFTSDYSKLLEEEAVRLFIEWLVKGPGGGGGSGGGGSGGGGSGGGGSATHTCPPC
B10: IP274 (Fc fusion)
chain: YSEGTFTSDYSKLLEKEAVRLFIEWLLKGPGGGGGSGGGGSGGGGSGGGGSATHTCPPC
B11: IP279 (Fc fusion)
chain: YSEGTFTSDYSKLLEEEAVRLFIEWLVKGPSSGAPPPSGGGGGSGGGGSGGGGSGGGGSATHTCPPC
B12: IP291 (Fc fusion)
chain: YSEGTFTSDYSKLLEEECVRLFIEWLVKGGPGGGAPPPGCGGGGGGGGGGGGGGGGGACPPC
B13: IP292 (Fc fusion)
chain: YSEGTFTSDYSKLLEEEAVRCFIEWLVKGGPGGGAPPCGGGGGGGGGGGGGGGGGGGACPPC

Experiments:
Assay in all cases: cell-based or functional assay
human GLP-1 receptor = human GLP-1 receptor (human, UniProt P43220 24-463)
human glucagon receptor = human glucagon receptor (human, UniProt P47871 26-477)
human GIP receptor = molecular target: T1, human GIP receptor
mouse GLP-1 receptor = molecular target: T2, mouse GLP-1 receptor
mouse GIP receptor = molecular target: T3, mouse GIP receptor
rat GLP-1 receptor = molecular target: T4, rat GLP-1 receptor
rat GIP receptor = molecular target: T5, rat GIP receptor

Binder	cAMP EC50 (human GLP-1 receptor)	cAMP EC50 (human glucagon receptor)	cAMP EC50 (human GIP receptor)	cAMP EC50 (mouse GLP-1 receptor)	cAMP EC50 (mouse GIP receptor)	cAMP EC50 (rat GLP-1 receptor)	cAMP EC50 (rat GIP receptor)	cAMP EC50, Batch 2 (human GLP-1 receptor)	cAMP EC50, Batch 2 (human glucagon receptor)	cAMP EC50, Batch 2 (human GIP receptor)	also measured
B1	0.53 nM	1700 nM	0.011 nM	2.3 nM	11 nM	0.085 nM	0.048 nM				
B2	0.1 nM	670 nM	0.0084 nM	0.19 nM	85 nM	0.02 nM	0.09 nM				
B3	0.13 nM	78 nM	0.011 nM	0.32 nM	85 nM	0.026 nM	0.13 nM				
B4	0.091 nM	41 nM	0.0043 nM	0.35 nM	0.66 nM	0.023 nM	0.041 nM	0.14 nM	32 nM	0.012 nM	cAMP EC50, Batch 3 (human GLP-1 receptor): 0.15 nM; cAMP EC50, Batch 3 (human glucagon receptor): 23 nM; cAMP EC50, Batch 3 (human GIP receptor): 0.0086 nM; cAMP EC50, Batch 2 (mouse GLP-1 receptor): 0.241 nM; cAMP EC50, Batch 3 (mouse GLP-1 receptor): 0.34 nM; cAMP EC50, Batch 2 (mouse GIP receptor): 1.2 nM; cAMP EC50, Batch 3 (mouse GIP receptor): 0.571 nM; cAMP EC50, Batch 2 (rat GLP-1 receptor): 0.018 nM; cAMP EC50, Batch 3 (rat GLP-1 receptor): 0.0286 nM; cAMP EC50, Batch 2 (rat GIP receptor): 0.0658 nM; cAMP EC50, Batch 3 (rat GIP receptor): 0.025 nM
B5	0.077 nM	520 nM	0.0056 nM	0.21 nM	8.8 nM	0.027 nM	0.046 nM	0.058 nM	270 nM	0.0045 nM	cAMP EC50, Batch 3 (human GLP-1 receptor): 0.08 nM; cAMP EC50, Batch 3 (human glucagon receptor): 280 nM; cAMP EC50, Batch 3 (human GIP receptor): 0.0064 nM
B6	0.16 nM	1500 nM	0.013 nM	0.34 nM	510 nM	0.028 nM	0.26 nM				
B7	1.6 nM	> 13000 nM	1.2 nM	13 nM	7800 nM	0.45 nM	16 nM				
B8	27 nM	> 6810 nM	1.3 nM	350 nM	> 6800 nM	7.1 nM	100 nM				
B9	0.12 nM	2900 nM	0.01 nM	0.28 nM	210 nM	0.026 nM	0.15 nM				cAMP EC50, hGIPr (C3) line (human GIP receptor): 3.8 nM
B10	0.36 nM	38 nM	0.017 nM	1.2 nM	1 nM	0.057 nM	0.028 nM	0.2 nM	30 nM	0.014 nM	
B11	0.1 nM	170 nM	0.01 nM	0.22 nM	43 nM	0.024 nM	0.097 nM				
B12	12 nM	> 10600 nM	0.12 nM	120 nM	680 nM	3 nM	1.4 nM				
B13	0.26 nM	> 13600 nM	0.043 nM	1.2 nM	66 nM	0.037 nM	0.29 nM	1.1 nM	> 14900 nM	0.046 nM	cAMP EC50, Batch 2 (mouse GLP-1 receptor): 1.32 nM; cAMP EC50, Batch 2 (mouse GIP receptor): 55.4 nM; cAMP EC50, Batch 2 (rat GLP-1 receptor): 0.0432 nM; cAMP EC50, Batch 2 (rat GIP receptor): 0.186 nM
